The values that follow come from article PMC8399149, “Engineering of Yeast Old Yellow Enzyme OYE3 Enables Its Capability Discriminating of (E)-Citral and (Z)-Citral” (Molecules, 2021).

Substrate in data set [1]: CC(C)=CCC/C(C)=C/C=O
Kind of data set: purified protein. As to conditions: FMN, NADPH active site. Format: biochemical, Saccharomyces cerevisiae.

Substrate in data set [2]: CC(C)=CCC/C(C)=C\C=O
Kind of data set: purified protein. As to conditions: FMN; NADPH active site; H191/N194 hydrogen bonds with the carbonyl oxygen of citral, hydride from FMNH2 to Cβ, Y196 proton donor (docking). The class given is biochemical, Saccharomyces cerevisiae.

The mark [3] stands for this setting: H191/N194 hydrogen bonds with the carbonyl oxygen of citral, hydride from FMNH2 to Cβ, Y196 proton donor (docking).

B1: old yellow enzyme OYE3 (Saccharomyces cerevisiae S288C; S297F/W117G) (protein)
chain: MPFVKGFEPISLRDTNLFEPIKIGNTQLAHRAVMPPLTRMRATHPGNIPNKEWAAVYYGQRAQRPGTMIITEGTFISPQAGGYDNAPGIWSDEQVAEWKNIFLAIHDCQSFAWVQLGSLGWASFPDVLARDGLRYDCASDRVYMNATLQEKAKDANNLEHSLTKDDIKQYIKDYIHAAKNSIAAGADGVEIHSANGYLLNQFLDPHSNKRTDEYGGTIENRARFTLEVVDALIETIGPERVGLRLSPYGTFNSMSGGAEPGIIAQYSYVLGELEKRAKAGKRLAFVHLVEPRVTDPFLVEGEGEYSEGTNDFAYSIWKGPIIRAGNYALHPEVVREQVKDPRTLIGYGRFFISNPDLVYRLEEGLPLNKYDRSTFYTMSAEGYTDYPTYEEAVDLGWNKN
As for B1, the Km in data set [1] (accommodation similar to OYE3 (docking)) was determined as 90 µM.

B2: old yellow enzyme OYE3 (Saccharomyces cerevisiae S288C) (protein)
chain: PFVKGFEPISLRDTNLFEPIKIGNTQLAHRAVMPPLTRMRATHPGNIPNKEWAAVYYGQRAQRPGTMIITEGTFISPQAGGYDNAPGIWSDEQVAEWKNIFLAIHDCQSFAWVQLWSLGWASFPDVLARDGLRYDCASDRVYMNATLQEKAKDANNLEHSLTKDDIKQYIKDYIHAAKNSIAAGADGVEIHSANGYLLNQFLDPHSNKRTDEYGGTIENRARFTLEVVDALIETIGPERVGLRLSPYGTFNSMSGGAEPGIIAQYSYVLGELEKRAKAGKRLAFVHLVEPRVTDPSLVEGEGEYSEGTNDFAYSIWKGPIIRAGNYALHPEVVREQVKDPRTLIGYGRFFISNPDLVYRLEEGLPLNKYDRSTFYTMSAEGYTDYPTYEEAVDLGWNKN
Consider B2, for which, in data set [2], the Km is 70 ± 10 µM, the maximum rate (Vmax) came out at 0.12 µmol/min/mg, the catalytic constant (kcat) is 0.1 ± 0.01 s⁻¹ and the specificity constant (kcat/Km) was determined as 1490 ± 80 M⁻¹ s⁻¹. In data set [1] (setting [3]), the Michaelis constant (Km) was found to be 50 ± 10 µM, the maximal velocity (Vmax) stood at 0.16 µmol/min/mg, the kcat stood at 0.13 ± 0.02 s⁻¹ and the kcat/Km is 2760 ± 110 M⁻¹ s⁻¹.
